One experiment concerns the target T1, mouse LAG-3 (mouse, UniProt Q61790 24-442).
T1 construct: The construct is not described; also called mouse LAG-3 (Sino Biological cat no 53069-M02H); Mouse LAG3 (R&D Biotechne cat 3328-L3)
T1 sequence (looked up): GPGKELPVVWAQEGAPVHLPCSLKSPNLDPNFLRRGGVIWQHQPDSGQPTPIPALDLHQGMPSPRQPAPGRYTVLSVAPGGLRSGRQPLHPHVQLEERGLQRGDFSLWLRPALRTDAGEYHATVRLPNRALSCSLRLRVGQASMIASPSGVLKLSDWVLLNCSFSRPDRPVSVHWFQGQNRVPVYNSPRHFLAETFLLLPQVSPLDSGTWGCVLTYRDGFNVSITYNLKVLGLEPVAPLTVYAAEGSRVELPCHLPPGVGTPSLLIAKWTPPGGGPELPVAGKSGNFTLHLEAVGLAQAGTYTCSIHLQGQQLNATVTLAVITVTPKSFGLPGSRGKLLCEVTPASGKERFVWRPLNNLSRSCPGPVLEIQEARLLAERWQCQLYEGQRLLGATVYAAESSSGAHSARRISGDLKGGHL
The experiment in a line: ELISA, coated antigen, anti-HIS HRP detection. On the procedure:
(§1) To screen specificity by ELISA, antigens were coated at 1-5 ug/ml and blocked with Marvel milk powder. VH were added at 10 μg/ml and incubated for 1 hour. After washing, HRP-conjugated anti-HIS antibody (Miltenyi cat no. 130-092-785) was added. TMB substrate and acidic solution were used to develop colorimetric signal.
A general note: In an ELISA, binding on a coated surface is turned into a signal by an enzyme label.

For another experiment, the target named is T2, CD4 (UniProt P01730 26-390).
T2 construct: also called CD4 (R&D Biotechne 514-CD)
Nature of the experiment: ELISA, coated antigen, anti-HIS HRP detection. On the procedure:
as §1

In experiment [1] the target is T3, recombinant human LAG-3-Fc (human, UniProt P18627 23-450).
T3 construct: also called human LAG-3 (R&D Systems cat no. 2319-L3); LAG3 antigen
T3 sequence: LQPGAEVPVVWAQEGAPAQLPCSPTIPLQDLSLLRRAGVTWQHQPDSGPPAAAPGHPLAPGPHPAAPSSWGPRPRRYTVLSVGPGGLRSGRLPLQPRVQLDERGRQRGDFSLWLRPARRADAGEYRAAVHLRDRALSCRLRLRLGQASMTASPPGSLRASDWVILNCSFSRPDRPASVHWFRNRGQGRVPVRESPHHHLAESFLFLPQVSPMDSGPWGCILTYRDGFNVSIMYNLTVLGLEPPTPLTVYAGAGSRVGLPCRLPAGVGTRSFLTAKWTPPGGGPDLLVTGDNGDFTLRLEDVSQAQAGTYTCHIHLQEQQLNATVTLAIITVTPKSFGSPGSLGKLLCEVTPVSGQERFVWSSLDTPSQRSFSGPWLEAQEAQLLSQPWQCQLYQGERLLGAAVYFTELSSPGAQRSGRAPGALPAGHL
Nature of the experiment: competition ELISA; LAG-3-Fc pre-incubated with VH, binding to coated LSECtin. The source says: (§2) The plate was blocked with 3% Marvel skimmed milk powder in PBS. […] Wash steps were done 3 times with PBS 0.05% Tween. Colour was developed using TMB and 0.5M sulphuric acid solution.

Experiment [2] addresses T3, recombinant human LAG-3-Fc. The experiment in a line: BLI (Octet); human LAG-3-Fc captured on protein G biosensors, 1:1 fit. On the procedure: (§3) Binding kinetics for multi-valent and bispecific VH were also measured in real-time bio-layer interferometer based biosensor Octet (ForteBio). […] All the binding studies were performed in HBS-ET Octet kinetics buffer. Biosensors were washed in Octet kinetics buffer in between different steps. […] The contact time for each of the association steps was 150 seconds and the dissociation step was 400 seconds. […] To compare the constructs, kinetic association (kₐ) and dissociation (kd) rate constants were determined by processing and fitting the data to a 1:1 binding model using ForteBio Analysis software.
(Biolayer interferometry detects binding as a change in optical thickness at a sensor tip.)

Experiment [3] concerns the target T4, human LAG-3 domains 1-2-Fc (human, UniProt P18627 23-261, limits assumed).
T4 construct: Domains were identified as per Huard et al 1997 PNAS 94:5744-9; also called truncated LAG-3
T4 sequence: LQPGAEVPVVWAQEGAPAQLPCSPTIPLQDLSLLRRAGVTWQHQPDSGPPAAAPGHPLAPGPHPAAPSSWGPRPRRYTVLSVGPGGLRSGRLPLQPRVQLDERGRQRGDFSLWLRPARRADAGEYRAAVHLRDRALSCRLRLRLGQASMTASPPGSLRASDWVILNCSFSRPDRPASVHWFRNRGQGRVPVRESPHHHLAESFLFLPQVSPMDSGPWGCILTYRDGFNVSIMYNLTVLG
The experiment in a line: ELISA, coated antigen, VH at 10 µg/ml, anti-HIS HRP. On the procedure:
as §1

Experiment [4] has as its target T5, Rhesus monkey LAG-3 (used as cynomolgus LAG-3) (Rhesus monkey (called cynomolgus in the …)).
T5 construct: extracellular domain
The experiment is described as above. The procedure:
as §1

Experiment [5] has as its target T3, recombinant human LAG-3-Fc. The description is as above. The procedure:
as §1

The target in experiment [6] is T3, recombinant human LAG-3-Fc. The experiment in a line: competition ELISA; LAG-3-Fc pre-incubated with VH, binding to coated alpha-synuclein.
Description: as §2

Experiment [7] concerns the target T5, Rhesus monkey LAG-3 (used as cynomolgus …). The experiment in a line: BLI (Octet); cynomolgus LAG-3 immobilised on ARG2 sensors, 1:1 fit. The procedure:
as §3

Experiment [8] has as its target T3, recombinant human LAG-3-Fc. The experiment in a line: BLI (Octet); human LAG-3-Fc amine-coupled to biosensor, VH in solution, 1:1 fit. The procedure: Binding kinetics were measured in real-time bio-layer interferometer based biosensor Octet (ForteBio). […] All the binding studies were performed in HBS-ET Octet kinetics buffer. Biosensors were washed in Octet kinetics buffer in between different steps. A seven point, two-fold dilution series of each Humabody® VH was made with a top concentration of 1.6 μM. The contact time for each of the association steps was 150 seconds and the dissociation step was 300-400 seconds. Kinetic association (kₐ) and dissociation (kd) rate constants were determined by processing and fitting the data to a 1:1 binding model using ForteBio Analysis software.

The target in experiment [9] is T4, human LAG-3 domains 1-2-Fc. Nature of the experiment: BLI (Octet); human LAG-3 domains 1-2-Fc captured on protein G biosensors, 1:1 fit. On the procedure: as §3
The target of experiment [10] is T6, human LAG-3 expressed on cells (human, UniProt P18627 23-525).
T6 sequence: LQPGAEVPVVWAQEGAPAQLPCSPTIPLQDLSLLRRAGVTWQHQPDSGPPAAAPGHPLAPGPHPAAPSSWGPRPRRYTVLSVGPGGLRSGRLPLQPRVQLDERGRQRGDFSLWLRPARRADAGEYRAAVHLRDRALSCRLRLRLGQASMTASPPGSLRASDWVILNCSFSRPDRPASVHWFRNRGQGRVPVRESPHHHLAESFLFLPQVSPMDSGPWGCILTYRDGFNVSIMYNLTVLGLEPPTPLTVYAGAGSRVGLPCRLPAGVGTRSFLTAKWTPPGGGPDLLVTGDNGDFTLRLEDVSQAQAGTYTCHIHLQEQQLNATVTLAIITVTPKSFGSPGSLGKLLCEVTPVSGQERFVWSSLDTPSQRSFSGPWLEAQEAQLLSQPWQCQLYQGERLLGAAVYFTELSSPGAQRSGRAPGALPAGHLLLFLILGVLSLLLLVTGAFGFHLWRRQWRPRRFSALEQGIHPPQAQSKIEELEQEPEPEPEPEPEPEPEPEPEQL
Nature of the experiment: cell-based or functional assay.

Experiment [11] deals with T6, human LAG-3 expressed on cells. The experiment in a line: FMAT (Mirrorball) binding to CHO human LAG-3 cells, anti-His detection. An excerpt:
Plates were read in the FL2 (502 nm-537 nm) and FL5 (677-800 nm) channels on the TTP Mirrorball plate reader following excitation at 488 nm and 640 nm. Data was gated on FL5 perimeter and peak intensity and the FL2 median mean fluorescence intensity of the gated data used for determination of VH binding.

Where only a bound is given, the exact number is not on record here.

B1: VH 1.1 (VHH)
VHH: EVQLVESGGGVVRPGGSLRLSCSASGFTFDDYGMSWVRQAPGKGLEWVSGIHWNGGNSGYADSVKGRFTISRDNAKNSLYLQMNSLRAEDTALYYCARIPREDCSSASCYTDAIDFWGPGTMVTVSS
notes: Human VH single domain antibody (Humabody) against LAG-3; also called VH single domain antibody 1.1; monovalent LAG-3 VH 1.1
For B1, the binding result with mouse LAG-3 and in the experiment with CD4 was “no binding (tested: 10 µg/ml VH)” each time. For the same molecule, the IC50 (as a rule, the concentration at which inhibition is half-maximal) in experiment [1] worked out at 210 nM; in [6], 45 nM. In addition, the Kd (in general, a measure of binding affinity in units of concentration) in experiment [2] turned out to be 32.6 nM; in experiment [7], 25.6 nM; in [8], 31.3 nM; in experiment [9], 67.5 nM. Also, the koff (as a rule, the rate constant with which the complex falls apart) in experiment [2] is 0.000905 s⁻¹; in [7], 0.000222 s⁻¹; in [8], 0.00089 s⁻¹; in [9], 0.0011 s⁻¹. The kon (usually the second-order rate constant of association) in experiment [2] stood at 27800 M⁻¹ s⁻¹; in experiment [7], 8650 M⁻¹ s⁻¹; in experiment [8], 26200 M⁻¹ s⁻¹; in experiment [9], 16200 M⁻¹ s⁻¹. For the same molecule, the “ELISA signal over background” value in experiment [3], in experiment [4] and in [5] was over 10 fold over background throughout. Besides, the “EC50 (M), NFAT-Luciferase Reporter Gene assay (LAG-3:MHCII)” value in experiment [10] is over 3.3e-07 M. For the same molecule, the EC50 (usually the midpoint of the concentration-response curve) in [11] came to 1.8 nM.

The record behind these values is patent US20210015937A1 (CRESCENDO BIOLOGICS, published 2021).
